Reference: the nanobody polyreactivity screen of Harvey et al. (2022)

Test: yeast display, Sf9 membrane polyspecificity reagent, FACS + sequencing; frameworks hold sequencing errors
Method in brief: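 Nanobodies from a synthetic yeast display library (Saccharomyces cerevisiae BJ5465), induced 36–48 hours with galactose, were stained 1 hour at 4 °C with 10% biotinylated, detergent-solubilized Sf9 membrane reagent, enriched on streptavidin microbeads, then FACS-sorted. Anti-HA (expression) and streptavidin (reagent binding) fluorescence set low and high (top ~1%) gates. Polyreactivity labels come from the gate of origin. Genes were colony-PCR amplified, MiSeq 2 × 250 sequenced and filtered by CDR length.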

Sequence	polyreactivity (PSR sort gate)
QVLLVESGGGLVQAGGSLRLSCAASGSIFGYKDMGWYRQAPGKERELVASITRGGGRTRYADSVKGRFTISRDNAKNTVYLQMNSLKPEDTAVYYCAADKLSYSYVRPPRNHEDYWGQGTQVTVSS	low polyreactivity
QVQLVESGGGLDQAGGSLRLSCAASGSIFDSNALGWYRQAPGKERELVASITSSGGSTYYADSVKGRFTISRDKAKNTVYLQMNSLKPEDTAVYYCAADSYKTKHDAYDYCGQGTQVTVSS	high polyreactivity
QVQLVESGGGLVQAGGSLRLSCAASGRIFLRNAMGWYRQAPGKERELVATITSRGGSTYYADSVRGRFTISRDNAKNTVYLQMNSLKPEDTAVYYCAAKVAWGHWRGYDYWGQGTQVTVSS	low polyreactivity
QVQLVESGGGLVQAGGSLRLSCAASGRTFTEYAMGWYRQAPGKERELVARISIGDSTYYADSVKGRFTISRDNAKNTVYLQMNSLKPEDTAVYYCNAEYSRSYRYDEGYWGQGTQVTVSS	low polyreactivity
QVQLVESGGGLFKAGGSLRLSSAASGSIFQNYDMGWYRQAPGNERELVAAISSSGDTYYADSVKGRFTISLDNAKNTVYLQMNSLKPEDTAVYYCAATYPYSLYYPYYGGDYDYWGQGTQVTVSS	low polyreactivity
HVQLQESGGGLVQAGGSLRLSCAASGSIFQATYMGWYRQAPGKEREFVASITYGSITKYADSVNGRFTIGRDNAKDTLYLQMNSLKPEDTAVYYCAVDRHYIPAFHYWGQGTQVTVSS	low polyreactivity
QVQLVESGGGLVQAGGSLRISCAASGSIFTANSMGWYRQAPGKERELVAAITWSGGSTYYADSVKGRFTISRDNAKNTVYLQMNSLKPEDPAVYYCAALPLYLGPKRLGYWGQGTQVTVSS	high polyreactivity
QVQLVESGGGLVQAGGSLRLSCAASGRTFPNNAMGWYRQAPGKERELVAAISSGSSTDYADSVKGRFTISRDNAKNTVYLQMNSLKPEDTAVYYCNAGDYTYPGSPWPGYAYDYWGQGTQVTVSS	low polyreactivity
QDQLVDSGGGLVQAGGSLRLSCAASVRTFDRYAMGWYRQAPGKVRELVAAISGRGGSTYYADSVKGRFTISRDNAKNTVYLQMNSLKPEDTAVYYCAARGSLWGAPSDYYYCGQGTQVTVSS	high polyreactivity
QVQLVESGRGLVQAGGSLRLSCAASGSTFYRYAMGWYRQAPGKERELVAGITGSGGRTYYADSVKGRFTISRDNAKNTVYLQMNSLKPEDTAVYYCNAYPSSSLFDYWGQGTQVTVSS	low polyreactivity
QVQLVESVGGLDQAGGTLRLSCAASGSTFKYNGMGWYRQAPGKERELVAAISWRAGSTYADSVKGRFTISRDNAKNTVYLLMYSLKPEDTEVYYCAARLKYWGDYYYWGQGTQVTVSS	low polyreactivity
QVQLVESGVGLVQAGGSLRLSCAASGLTFYSYAMGWSRQAPGKERELVATISRNGGPTRYADSVKGRFTISRDNAKNTVYLQMNSLKPEDTAVYYCTYVQSGEYDYWGQGTQVTVSS	high polyreactivity
QVQLVESGGGLVQAGGSLRLSCAASGNIFLYYAMGWYRQAPGKERELDADIDSSGASTYYADSVKGRFTISRDNAKNNVYLQMNSLKPEDTAVYYCAAEFHWWYAGYDYGYWGQGTQVTVSS	low polyreactivity
QVQLVESGGGLVQAGGSLRLSCAASGRTFGTNGMGWYRQAPGKERELVAVITWTGGSTYYADSVKGRFTISRDNAKNTVYLQMNSLKPEDTAVYYCAAKYSHLGYNYWGQGTQVTVSS	high polyreactivity
QVQLVESGGGLDQAGGSLRLSCAASGRIFTAYAMGWYRQAHGKERELVAAISSGDSTYYADSVKGRFTISRDNAKNTVYLQMNSLKPEDTAVYYCATGVYPDFEYDSWGQGTQVTVSS	low polyreactivity
QVQLVESGGGLVQAGGSLRLSCAASGNTFDYYAMGWYRQAPGKERELVAAITRGGSTNYADSVKGRFTISRDNAKNTVYLQMNSLKPEDTAGYYCAAEQRAPRFADYDYWGQGTQVTVSS	low polyreactivity
QVQLVESGGGLVQAGGSLRISCAASGRTFDRYAMGWYREAPGKERELVAVIRFIGGSTYYADSVKGRFTISRDNAKKTVYLQRNSLIPEDTAVYYCAAEVYDSYFFGYEYWGQGTQVTVSS	low polyreactivity
QFQLVESGGGLVQAGGSLRLICAASGLTFVYNDMGWYRQAHGKERELVAGITSGGSTYYADSVKGRFTISRDNAKNTVYLQMNSLKPEDTAVYYGAADGLSTDLFRPDSIVDYWGQGTQVTVSS	low polyreactivity
QVQLVESGGGLVQAGGSLRLSCAASGIIFKYNAMGRYRQAPGKEREFVAAITGSGGSTYYADSVKGRFTISRDNAKNTVYLQMYSLKPEDTAVYYCARPQWRDWYGYWGQGTQVTVSS	low polyreactivity
QVQLVESGGGLVQAGGSLGLSCAASGSIFSRNTMGWYRPARGKERELVAAITSSGGNTYYADSVKGRFTISRDNAKNTVYLQMNSLKPDDTAVYYCAADVAQVGYQVGDSEIYPGYEDWGQGSQVTVSS	low polyreactivity
QVQLVESGGGLVQAGGSLRLSCAASGSIYYTNAMGWYRQAPGKERELVAAISYGGTTTYADSVKGRFTISRDNAKNTVYLQMNSLKPEDTAVYYCNADWLYYGYWGYGHIWYDYWGQGTQVTVSS	low polyreactivity
QVQLVESGGGLVQAGGSLRLSCAASGSTFGGNAMGWYRQAPGKERELVAAITVGGDSTYYADSVKGRFTISRDNAKNTVYLQMNSLKPEVTAVYYCAAGPWYKFYDWRPWFSYDYWGQGTQVTVSS	low polyreactivity

Sequence	polyreactivity (PSR sort gate)
QVQLVESGGGLVQAGGSLRLSCAASGRTFYLYAMGWYRQAPGKEREFVAAISWSTGSTYYADSVKGRFTISRDNAKNTVYLQMNSLKPEDTAVYYCAASTFTGYPKMYYWGQGTQVTVSS	high polyreactivity
QVQLVESGGGLVQAGGSLRLSCAASGSILYVNAMGWYRQAPGKERELVAVITSGGSTNNADSVKGRFTISRDNAKNTVYLQMNSLKPEDTAVYYCAADPYSVYGGDYWGQGTQVTVSS	low polyreactivity
QVQLVESGGGLVQAGGSLRLSCAASGIISTYYVMGWYRQAPGKERELVAAITGGDTSTYYADSVKGRFTISRDNAKKTVYLQMNSLKPEDTADYYCAKEYYYARGARYDYWGQGTQVTVSS	low polyreactivity
QVQLVESGGGLVQAGGSLRLSCAASGRTFYHNAMGWYRPAPGKEWELVASIRWSGGSTYADSVKGRFTISRDNAKNTVYLQMNSLKPEDTAGYYCAKVGKSLYPVDYYSWGQGTQVTVSS	high polyreactivity
QVQLVESGGGLVQAGGSLRLSCAASGIIFTFYAMGWYRQAPGKERELVAAISYSSGSTYADSVKGRFTISRDNAKNTVYLQMNSLKPDDTAVYYCAVDLFPGHSYTYDYWGQGTQVTVSS	low polyreactivity
QVQHVESGGGLVQAGLSLRLSCAASGRIFYGYAMGWYRQGPGQEREFVAAITSGGRTYYADSVKGRFTISRDNAKTTVYLQLNSLKPEDTAVYYCAAAQYYRYGYWGQGTQVTVSS	high polyreactivity
QVQLVESGGGLVQAGGSLRLSCAASGSIFDIYAMGWYRQAPGKERELVAAISWNGGDTTYADSVKGRFTISRDNEKNTVYLQMNSLKPEYTAVYYCAADLGYWVADYYWGQGTQVTVSS	high polyreactivity
QVQLVESGGGLVQAGGSLRLSCAASGLTFDGNTMGWYRQAPGKERELVAAISFDGGNTYADSVKGRFTISRDNAKNTVYLQMISLKPEDTAVYYDYWGQGNQVTVSS	low polyreactivity
QVQLVESGGGLVQARGSLRLSCAASGFTFSRYAMGWYRQAPGKERELVAAITRSGGSTYYADSVKGRFTISRDNAKNTVYLQMNSLKPEDTAVYYCAKRAASGFRWDSGYWGQGTQVTVSS	high polyreactivity
QLQLVESGGGLVQAGGSLRLSCAANGSTFWIYAMGWYRQAPGKERELVAAITLRSGSTYYADSVKGRFTMSRDNAKNTVYLQMNSLKPEDTAVYYCATDSWGVDRPNYNYWGQGTQVTVSS	low polyreactivity
QVQLQESGGGLVQAGGSLRLSCPSSGNISIKLQMGWYRQAPGKERELVATINLGAITYYADSVKGLITISRDNAKNTVYLQVNSLKPEDTAVYYCNAQSRTWRKLGYWGQGTQVTVSS	low polyreactivity
QVQLVESGGGLVQAGGSLRLSCAASGNTFYTYAMGWYRQAPGKERELVAAITSGGRTYADSVKGRFTISRDNAKNTVYLQMNSLKPEDTEVYYCAAEFPGFYYVYPGDYWGQGTQVTVSS	low polyreactivity
QVQLVESGGGLVQAGGSLRVSCASSGSTFVSYAMVWYRQAPGKERELVASISGSDGRTYYADSVKGRFTISRDNAKNTVYLQMKSLNPEDTAVYYCAKRYWRHPVFYLYDYWVQGTQVTVSS	high polyreactivity
QVQLEESGGCLVQAGGSLRLSCAASGITFVLYAMGWYRQAPGTERELVAAINIDGNTNYADSVKGRFTISRDNAKNTVYLQMNSLKPEDTAVYYCAATFVPAQSRYTCSKYDYWGQGTQVTVSS	low polyreactivity
QVKLVESGGGLVQAGGSLRLSCAASGFTFTWYVMGWYRQAPGKESELVAAISRSGGSKYYADSVKGRFTISRDNAKNTVYLQMNRLKPEDTAVYYCADVGTSSYDYWGQGTQVTVSS	high polyreactivity
QVQLVESGGGLVQAGGSLRLSCAASGSIFTYNAMGWYRQAPGKERELVATISYSGGSTDYADSVKGRFTISRDNAKNTVYLQMNSLKPEDTAVYYCNKEYGYPPIWQDYGYDSWGQGTQVTVSS	high polyreactivity
QVQLVESGGGLVQAGGSLRLSCDASGRIFRANAMGWYRQAPGKERELVASISRGGSTNYADSVKGRFTISRDNAKNTVYLQMNRLKPEDTAVYYCAARLGFYPYGYTSWYTVYYWGQGTQVTVSS	low polyreactivity
QVQLVESAAGLVQAGGSHRLSCAASGFTFDHYAMGWSRQEPGKESELVAAISKRGGTTYYADSVKGRFTISRDNAKNTVYLQTKSLKPEDTAVYYCNADVNNWEDDYYYWGQGTQVTVSS	high polyreactivity
QVQLVESGGGLVQAGGSLRLSCAASGFTFFTNAMGWYRKAPGKEREFVAAISGSGSRTYYADSVKGRFTISRDNAKNTVYLQMNSLIPEDTAVYYCAARVRGVYPFDYWGQGTQVTVSS	high polyreactivity
QVQLVESGGGIVQAGGSIRLSCAASGYTFAKYAMGWYRQAPGKERELVAAITFSDTSTYYADSVKGRFTISRDNAKNTVYLQMNSLKPEDTAVYYCAVVGPYYSRFGGRYYYWGQGTQVTVSS	low polyreactivity
QVQLVESGVGLVQAGGSLRLSCAASGFSFAVYGMGSYIQAPGKQRELVAAISTGDSTKYADSVKARFTISRDNAKNTVYLQKNSLKPEDTEVYYCAARIPWSPWLGYWGQGTQVTVST	high polyreactivity
